Assay [1] addresses T1, human CLD18A1 (human, UniProt P56856 1-261).
T1 construct: on transfected HEK293 or CHO cells; also called claudin 18 splice variant 1; NP-057453
Briefly: flow cytometry on HEK293-CLD18A1 cells. A general note: In flow cytometry, cells or beads pass a laser one at a time.

In assay [2] the target is T2, murine CLD18A1 (mouse, UniProt P56857 1-264).
T2 construct: on transiently transfected HEK293 cells; also called mouse CLD18A1; NP-062789
Briefly: summary of properties.

Assay [3] addresses T1, human CLD18A1. The experiment in a line: summary of properties.
Assay [4] addresses T2, murine CLD18A1. Briefly: flow cytometry on transfected HEK293 cells.
Protocol: Binding of the identified monoclonal antibodies to murine CLD18A2 and CLD18A1 was analyzed by flow cytometry. […] Binding was assessed by flow cytometry using a BD FACSArray.
For assay [5], the target named is T3, Peptide 7, Cys-Ser exchange (human).
T3 construct: also called peptide 7 containing serines instead of the two cysteines
T3 peptide: RSSVRESSGFTESRG
Briefly: SPOT peptide scan, peroxidase-conjugated antibody, luminescence; Cys-Ser exchange.

Assay [6] deals with T4, Peptide 7 RSCVRESSGFTECRG (human).
T4 construct: linear 15mer of the SPOT peptide scan, no exchange
T4 peptide: RSCVRESSGFTECRG
The experiment in a line: SPOT peptide scan, peroxidase-conjugated antibody, luminescence; no exchange.

In assay [7] the target is T5, Peptide 6 QGLWRSCVRESSGFT (human).
T5 construct: linear 15mer of the SPOT peptide scan, no exchange
T5 peptide: QGLWRSCVRESSGFT
Described as above.

The target in assay [8] is T6, Peptide 1 MDQWSTQDLYNNPVT (human).
T6 construct: linear 15mer of the SPOT peptide scan; has no cysteine, so the Cys-Ser exchange row is the same peptide
T6 peptide: MDQWSTQDLYNNPVT
Described as above.

Assay [9] has as its target T7, Peptide 5, Cys-Ser exchange (human).
T7 peptide: VFNYQGLWRSSVRES
Briefly: SPOT peptide scan, peroxidase-conjugated antibody, luminescence; Cys-Ser exchange.

The target in assay [10] is T8, Peptide 6, Cys-Ser exchange (human).
T8 peptide: QGLWRSSVRESSGFT
Described as above.

Assay [11] addresses T9, Peptide 3 LYNNPVTAVFNYQGL (human).
T9 construct: linear 15mer of the SPOT peptide scan; has no cysteine, so the Cys-Ser exchange row is the same peptide
T9 peptide: LYNNPVTAVFNYQGL
Briefly: SPOT peptide scan, peroxidase-conjugated antibody, luminescence; no exchange.

Assay [12] addresses T10, Peptide 5 VFNYQGLWRSCVRES (human).
T10 construct: linear 15mer of the SPOT peptide scan, no exchange
T10 peptide: VFNYQGLWRSCVRES
The assay is described as above.

For assay [13], the target named is T2, murine CLD18A1. Briefly: summary table of murine antibodies.
Assay [14] deals with T1, human CLD18A1. The experiment in a line: summary table of murine antibodies.

From patent publication US20100166779A1 (GANYMED PHARMACEUTICALS, published 2010) come the findings set out here.

B1: ch-166E2 (antibody, V domains shown)
VH: QVQLQQSGPELVKPGASVKMSCKASGYTFTDYVISWVKQRTGQGLEWIGEIYPGSGSTYYNEKFKGKATLTADKSSNTAYMQLSSLTSEDSAVYFCARGVLLRAMDYWGQGTSVTVSS
VL: DIVMSQSPSSLAVSAGEKVTMSCKSSQSLLNSRTRKNYLAWYQQKPGQSPKLLIYWASTRESGVPDRFTGSGSGTDFTLTISSVQAEDLAVYYCKQSYNLYTFGGGTKLEIKR
notes: mouse/human chimeric, human gamma-1 and kappa constant regions; also called chimeric 166E2
For B1, the binding result in the assay with human CLD18A1 [1] is “no binding”.

B2: 166E2 (antibody, IgG3, V domains shown)
VH: QVQLQQSGPELVKPGASVKMSCKASGYTFTDYVISWVKQRTGQGLEWIGEIYPGSGSTYYNEKFKGKATLTADKSSNTAYMQLSSLTSEDSAVYFCARGVLLRAMDYWGQGTSVTVSS
VL: DIVMSQSPSSLAVSAGEKVTMSCKSSQSLLNSRTRKNYLAWYQQKPGQSPKLLIYWASTRESGVPDRFTGSGSGTDFTLTISSVQAEDLAVYYCKQSYNLYTFGGGTKLEIK
notes: mouse monoclonal IgG3, kappa; also called 182-D1106-308
Regarding B2, the binding result with murine CLD18A1 [2] and in the assay with human CLD18A1 [3] was “no binding” each time.

B3: 163E12 (antibody, IgG3, V domains shown)
VH: QIQLVQSGPELKKPGETVKISCKASGYTFTNYGMNWVKQAPGKGLKWMGWINTNTGEPTYAEEFKGRFAFSLETSASTAYLQINNLKNEDTATYFCARLGFGNAMDYWGQGTSVTVSS
VL: DIVMTQSPSSLTVTAGEKVTMSCKSSQSLLNSGNQKNYLTWYQQKPGQPPKLLIYWASTRESGVPDRFTGSGSGTDFTLTISSVQAEDLAVYYCQNDYSYPLTFGAGTKLELK
notes: mouse monoclonal IgG3, kappa; also called 182-D1106-294; DSM ACC2809
For the molecule B3, the binding result in the assay with murine CLD18A1 [4] and with human CLD18A1 [1] was “no binding” in each case.

B4: ch-43A11 (antibody, V domains shown)
VH: QVQLQQSGAELMKPGASVKISCKATGYTFSSYWIEWVKQRPGHGLEWIGEILPGSGSTNYNEKFKGKATFTADTSSNTAYMQLSSLTSEDSAVYYCARYDYPWFAYWGQGTLVTVSA
VL: QIVLTQSPAIMSASPGEKVTITCSASSSVSYMHWFQQKPGTSPKLWIYSTSNLASGVPARFSGSGSGTSYSLTISRMEAEDAATYYCQQRSSYPPTFGGGTKLEIKR
notes: mouse/human chimeric, human gamma-1 and kappa constant regions; also called chimeric 43A11
Regarding B4, in the assay with human CLD18A1 [1], the binding result is “no binding”.

B5: 43A11 (antibody, IgG2a, V domains shown)
VH: QVQLQQSGAELMKPGASVKISCKATGYTFSSYWIEWVKQRPGHGLEWIGEILPGSGSTNYNEKFKGKATFTADTSSNTAYMQLSSLTSEDSAVYYCARYDYPWFAYWGQGTLVTVSA
VL: QIVLTQSPAIMSASPGEKVTITCSASSSVSYMHWFQQKPGTSPKLWIYSTSNLASGVPARFSGSGSGTSYSLTISRMEAEDAATYYCQQRSSYPPTFGGGTKLEIK
notes: mouse monoclonal IgG2a, kappa; also called 182-D1106-062; DSM ACC2742
On to B5, for which, in the assay with human CLD18A1 [1], the binding result was “no binding”.

B6: ch-175D10 (antibody, V domains shown)
VH: QVQLQQPGAELVRPGASVKLSCKASGYTFTSYWINWVKQRPGQGLEWIGNIYPSDSYTNYNQKFKDKATLTVDKSSSTAYMQLSSPTSEDSAVYYCTRSWRGNSFDYWGQGTTLTVSS
VL: DIVMTQSPSSLTVTAGEKVTMSCKSSQSLLNSGNQKNYLTWYQQKPGQPPKLLIYWASTRESGVPDRFTGSGSGTDFTLTISSVQAEDLAVYYCQNDYSYPFTFGSGTKLEIKR
notes: mouse/human chimeric, human gamma-1 and kappa constant regions; peroxidase-conjugated in the peptide scan; also called chimeric 175D10
In the case of B6, the binding result in assay [5], in assay [6], in [7] and in assay [8] was “binds” throughout.

B7: ch-163E12 (antibody, V domains shown)
VH: QIQLVQSGPELKKPGETVKISCKASGYTFTNYGMNWVKQAPGKGLKWMGWINTNTGEPTYAEEFKGRFAFSLETSASTAYLQINNLKNEDTATYFCARLGFGNAMDYWGQGTSVTVSS
VL: DIVMTQSPSSLTVTAGEKVTMSCKSSQSLLNSGNQKNYLTWYQQKPGQPPKLLIYWASTRESGVPDRFTGSGSGTDFTLTISSVQAEDLAVYYCQNDYSYPLTFGAGTKLELKR
notes: mouse/human chimeric, human gamma-1 and kappa constant regions; peroxidase-conjugated in the peptide scan; also called chimeric 163E12
With B7, the binding result with human CLD18A1 [1] was “no binding”; in [9] it was “binds”; in assay [10], “binds”; in [11], “binds”; in assay [12], “binds”; in assay [7] it was “binds”. Moreover, the binding result in assay [8] is given as “binds”.

B8: ch-125E1 (antibody, V domains shown)
VH: QVQLQQSGAELARPGASVKLSCKASGYTFTDYYINWVKQRTGQGLEWIGEIYPGSGNTYYNEKFKGKATLTADKSSSTAYMQLSSLTSEDSAVYFCARSYGAFDYWGQGTTLTVSS
VL: DIVMTQSQKFMSTSVGDRVSITCKASQNVRTAVAWYQQKPGQSPKALIYLASNRHTGVPDRFTGSGSGTDFTLTISNVQSEDLADYFCLQHWNYPLTFGGGTKLEIKR
notes: mouse/human chimeric, human gamma-1 and kappa constant regions; also called chimeric 125E1
Turning to B8, the binding result with human CLD18A1 [1] is on record as “no binding”.

B9: 125E1 (antibody, IgG2a, V domains shown)
VH: QVQLQQSGAELARPGASVKLSCKASGYTFTDYYINWVKQRTGQGLEWIGEIYPGSGNTYYNEKFKGKATLTADKSSSTAYMQLSSLTSEDSAVYFCARSYGAFDYWGQGTTLTVSS
VL: DIVMTQSQKFMSTSVGDRVSITCKASQNVRTAVAWYQQKPGQSPKALIYLASNRHTGVPDRFTGSGSGTDFTLTISNVQSEDLADYFCLQHWNYPLTFGGGTKLEIK
notes: mouse monoclonal IgG2a, kappa; also called 182-D1106-279; DSM ACC2808
Regarding B9, the binding result in the assay with murine CLD18A1 [13] and with human CLD18A1 [14] was “no binding” in each case.
